Patent US20140087995A1 (published 2014)
Numbered stars: 1 amine (or outer) side, 2 acyl side, 3 side chain; on linkers, the order of the positions; unused ones are H or OH. Bridge positions count the residues as written; N and C are the ends. Side chains are listed from the residue outwards. Ends that are not written are not given here. * marks the point of attachment. C20 diacid = O=C(O)CCCCCCCCCCCCCCCCCCC(=O)*; γGlu = O=C(O)[C@H](CCC(=O)[*:2])N[*:1]

T1: rat calcitonin receptor (rat, UniProt P32214 25-516)
T1 construct: whole, on cells; Membranes of transiently transfected BHK tk'ts 13 cells; also called rCTR; rat calcitonin (a) receptor
T1 sequence (looked up): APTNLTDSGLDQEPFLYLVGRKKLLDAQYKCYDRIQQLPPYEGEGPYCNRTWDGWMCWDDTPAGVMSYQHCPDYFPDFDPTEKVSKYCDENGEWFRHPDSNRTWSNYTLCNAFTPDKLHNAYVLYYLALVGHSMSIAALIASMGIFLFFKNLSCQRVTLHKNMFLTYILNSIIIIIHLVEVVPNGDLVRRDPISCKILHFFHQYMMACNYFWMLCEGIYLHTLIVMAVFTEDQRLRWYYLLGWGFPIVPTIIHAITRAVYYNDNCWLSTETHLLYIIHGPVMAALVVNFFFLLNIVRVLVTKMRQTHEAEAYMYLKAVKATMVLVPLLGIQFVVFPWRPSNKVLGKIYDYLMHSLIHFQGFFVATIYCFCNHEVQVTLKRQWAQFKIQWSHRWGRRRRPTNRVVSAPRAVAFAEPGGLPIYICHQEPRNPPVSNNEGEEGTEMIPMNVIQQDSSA

T2: human calcitonin receptor (human, UniProt P30988 25-474)
T2 construct: whole, on cells; Membranes of stably transfected cells; also called hCTR; hCT
T2 sequence (looked up): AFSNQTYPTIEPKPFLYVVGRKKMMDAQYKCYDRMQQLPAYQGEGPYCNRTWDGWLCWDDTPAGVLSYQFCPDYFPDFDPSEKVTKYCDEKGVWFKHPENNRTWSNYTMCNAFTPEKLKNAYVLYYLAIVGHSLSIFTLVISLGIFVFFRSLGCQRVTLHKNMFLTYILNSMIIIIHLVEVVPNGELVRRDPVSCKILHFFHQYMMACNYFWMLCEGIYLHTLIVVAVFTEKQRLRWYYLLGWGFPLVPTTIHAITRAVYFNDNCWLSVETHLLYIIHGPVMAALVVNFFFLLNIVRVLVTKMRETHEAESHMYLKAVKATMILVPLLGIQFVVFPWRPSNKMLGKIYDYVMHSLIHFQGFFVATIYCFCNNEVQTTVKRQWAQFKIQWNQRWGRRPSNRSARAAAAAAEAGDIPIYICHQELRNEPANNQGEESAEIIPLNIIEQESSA

T3: rat amylin receptor (rat calcitonin receptor + rat RAMP 3) (rat, UniProt P32214 25-516; Q9JJ73 23-147)
T3 construct: whole, on cells; Membranes of transiently transfected BHK tk'ts 13 cells; also called rAmylin-R; rat amylin 3(a) receptor
T3 sequence (looked up) 1: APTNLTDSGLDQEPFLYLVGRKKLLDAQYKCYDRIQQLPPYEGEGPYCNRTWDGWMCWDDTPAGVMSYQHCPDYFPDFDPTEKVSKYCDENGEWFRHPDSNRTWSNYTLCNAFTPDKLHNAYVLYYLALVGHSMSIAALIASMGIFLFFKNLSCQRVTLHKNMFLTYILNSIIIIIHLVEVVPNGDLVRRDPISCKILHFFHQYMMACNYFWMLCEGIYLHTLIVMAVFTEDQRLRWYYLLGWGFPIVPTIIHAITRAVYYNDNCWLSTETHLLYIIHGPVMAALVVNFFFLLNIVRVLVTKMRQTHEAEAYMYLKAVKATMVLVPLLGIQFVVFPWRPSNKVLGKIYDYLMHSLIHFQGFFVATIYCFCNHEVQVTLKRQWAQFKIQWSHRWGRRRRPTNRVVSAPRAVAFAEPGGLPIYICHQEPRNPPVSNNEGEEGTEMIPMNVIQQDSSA
T3 sequence (looked up) 2: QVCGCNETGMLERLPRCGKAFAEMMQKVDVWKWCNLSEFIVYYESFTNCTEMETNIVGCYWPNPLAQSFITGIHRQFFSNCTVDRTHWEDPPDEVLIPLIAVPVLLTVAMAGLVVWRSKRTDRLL


How the values were obtained:
rat calcitonin receptor [1] = target: T1, rat calcitonin receptor; assay: ratio of IC50 on rat calcitonin receptor to IC50 on rat amylin receptor (reference m40)
[2] = target: T2, human calcitonin receptor; assay: ratio of IC50 on human calcitonin receptor to IC50 on human amylin receptor (reference m42), SPA competition
In short: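 IC₅₀ values were derived by one-site competition analysis of SPA counts. Cell membranes (35 ng/μL) with SPA beads were incubated with test compounds for 120 min at 25° C in Hepes buffer, pH 7.4, containing CaCl2, MgCl₂, OA and Tween20.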

rat calcitonin receptor [3] = target: T1, rat calcitonin receptor; assay: SPA competition with 125I-calcitonin on membranes of BHK tk'ts 13 cells with rat calcitonin receptor (Assay VIII)
[4] = target: T3, rat amylin receptor (rat calcitonin …); assay: SPA competition with 125I-rat amylin on membranes of BHK tk'ts 13 cells with rat calcitonin receptor + rat RAMP3 (Assay VI)

Binder	Ratio rCT/rAmylin binding (rat calcitonin receptor [1])	Ratio hCT/hAmylin binding [2]	IC50 (rat calcitonin receptor [3]) [nM]	IC50 [4] [nM]
K([γGlu-C20 diacid])CNTATCATQRLAAFLRHSSPNFGAIPSSTNVGPNTY-NH2 (disulfide 2-7; N-terminus assumed; SMILES CC[C@H](C)[C@H](NC(=O)[C@H](C)NC(=O)CNC(=O)[C@H](Cc1ccccc1)NC(=O)[C@H](CC(N)=O)NC(=O)[C@@H]1CCCN1C(=O)[C@H](CO)NC(=O)[C@H](CO)NC(=O)[C@H](Cc1c[nH]cn1)NC(=O)[C@H](CCCNC(=N)N)NC(=O)[C@H](CC(C)C)NC(=O)[C@H](Cc1ccccc1)NC(=O)[C@H](C)NC(=O)[C@H](C)NC(=O)[C@H](CC(C)C)NC(=O)[C@H](CCCNC(=N)N)NC(=O)[C@H](CCC(N)=O)NC(=O)[C@@H](NC(=O)[C@H](C)NC(=O)[C@@H]1CSSC[C@H](NC(=O)[C@@H](N)CCCCNC(=O)CC[C@H](NC(=O)CCCCCCCCCCCCCCCCCCC(=O)O)C(=O)O)C(=O)N[C@@H](CC(N)=O)C(=O)N[C@@H]([C@@H](C)O)C(=O)N[C@@H](C)C(=O)N[C@@H]([C@@H](C)O)C(=O)N1)[C@@H](C)O)C(=O)N1CCC[C@H]1C(=O)N[C@@H](CO)C(=O)N[C@@H](CO)C(=O)N[C@H](C(=O)N[C@@H](CC(N)=O)C(=O)N[C@H](C(=O)NCC(=O)N1CCC[C@H]1C(=O)N[C@@H](CC(N)=O)C(=O)N[C@H](C(=O)N[C@@H](Cc1ccc(O)cc1)C(N)=O)[C@@H](C)O)C(C)C)[C@@H](C)O, Synthetic acylated analogue of human amylin; also called compound 94)	280	46.3	111	0.397
K([γGlu-C20 diacid])CNTATCATQRLAEFLRHSSPNFGAIPSSTNVGRETY-NH2 (disulfide 2-7; N-terminus assumed; SMILES CC[C@H](C)[C@H](NC(=O)[C@H](C)NC(=O)CNC(=O)[C@H](Cc1ccccc1)NC(=O)[C@H](CC(N)=O)NC(=O)[C@@H]1CCCN1C(=O)[C@H](CO)NC(=O)[C@H](CO)NC(=O)[C@H](Cc1c[nH]cn1)NC(=O)[C@H](CCCNC(=N)N)NC(=O)[C@H](CC(C)C)NC(=O)[C@H](Cc1ccccc1)NC(=O)[C@H](CCC(=O)O)NC(=O)[C@H](C)NC(=O)[C@H](CC(C)C)NC(=O)[C@H](CCCNC(=N)N)NC(=O)[C@H](CCC(N)=O)NC(=O)[C@@H](NC(=O)[C@H](C)NC(=O)[C@@H]1CSSC[C@H](NC(=O)[C@@H](N)CCCCNC(=O)CC[C@H](NC(=O)CCCCCCCCCCCCCCCCCCC(=O)O)C(=O)O)C(=O)N[C@@H](CC(N)=O)C(=O)N[C@@H]([C@@H](C)O)C(=O)N[C@@H](C)C(=O)N[C@@H]([C@@H](C)O)C(=O)N1)[C@@H](C)O)C(=O)N1CCC[C@H]1C(=O)N[C@@H](CO)C(=O)N[C@@H](CO)C(=O)N[C@H](C(=O)N[C@@H](CC(N)=O)C(=O)N[C@H](C(=O)NCC(=O)N[C@@H](CCCNC(=N)N)C(=O)N[C@@H](CCC(=O)O)C(=O)N[C@H](C(=O)N[C@@H](Cc1ccc(O)cc1)C(N)=O)[C@@H](C)O)C(C)C)[C@@H](C)O, Synthetic acylated analogue of human amylin)	81.1	28.5	86.1	1.06

More lines, now with the values ahead:

Ratio rCT/rAmylin binding (rat calcitonin receptor [1])	Ratio hCT/hAmylin binding [2]	IC50 (rat calcitonin receptor [3]) [nM]	IC50 [4] [nM]	Binder
83.2	101	131	1.58	K([γGlu-C20 diacid])CNTATCATQRLAAFLRHSSPNFGAIPSSTNVGHNTY-NH2 (disulfide 2-7; N-terminus assumed; SMILES CC[C@H](C)[C@H](NC(=O)[C@H](C)NC(=O)CNC(=O)[C@H](Cc1ccccc1)NC(=O)[C@H](CC(N)=O)NC(=O)[C@@H]1CCCN1C(=O)[C@H](CO)NC(=O)[C@H](CO)NC(=O)[C@H](Cc1c[nH]cn1)NC(=O)[C@H](CCCNC(=N)N)NC(=O)[C@H](CC(C)C)NC(=O)[C@H](Cc1ccccc1)NC(=O)[C@H](C)NC(=O)[C@H](C)NC(=O)[C@H](CC(C)C)NC(=O)[C@H](CCCNC(=N)N)NC(=O)[C@H](CCC(N)=O)NC(=O)[C@@H](NC(=O)[C@H](C)NC(=O)[C@@H]1CSSC[C@H](NC(=O)[C@@H](N)CCCCNC(=O)CC[C@H](NC(=O)CCCCCCCCCCCCCCCCCCC(=O)O)C(=O)O)C(=O)N[C@@H](CC(N)=O)C(=O)N[C@@H]([C@@H](C)O)C(=O)N[C@@H](C)C(=O)N[C@@H]([C@@H](C)O)C(=O)N1)[C@@H](C)O)C(=O)N1CCC[C@H]1C(=O)N[C@@H](CO)C(=O)N[C@@H](CO)C(=O)N[C@H](C(=O)N[C@@H](CC(N)=O)C(=O)N[C@H](C(=O)NCC(=O)N[C@@H](Cc1c[nH]cn1)C(=O)N[C@@H](CC(N)=O)C(=O)N[C@H](C(=O)N[C@@H](Cc1ccc(O)cc1)C(N)=O)[C@@H](C)O)C(C)C)[C@@H](C)O, Synthetic acylated analogue of human amylin; also called compound 93)
62	16.7	18.6	0.3	K([γGlu-C20 diacid])CNTATCATQRLADFLRHSSPNFGAIPSSTNVGPETY-NH2 (disulfide 2-7; N-terminus assumed; SMILES CC[C@H](C)[C@H](NC(=O)[C@H](C)NC(=O)CNC(=O)[C@H](Cc1ccccc1)NC(=O)[C@H](CC(N)=O)NC(=O)[C@@H]1CCCN1C(=O)[C@H](CO)NC(=O)[C@H](CO)NC(=O)[C@H](Cc1c[nH]cn1)NC(=O)[C@H](CCCNC(=N)N)NC(=O)[C@H](CC(C)C)NC(=O)[C@H](Cc1ccccc1)NC(=O)[C@H](CC(=O)O)NC(=O)[C@H](C)NC(=O)[C@H](CC(C)C)NC(=O)[C@H](CCCNC(=N)N)NC(=O)[C@H](CCC(N)=O)NC(=O)[C@@H](NC(=O)[C@H](C)NC(=O)[C@@H]1CSSC[C@H](NC(=O)[C@@H](N)CCCCNC(=O)CC[C@H](NC(=O)CCCCCCCCCCCCCCCCCCC(=O)O)C(=O)O)C(=O)N[C@@H](CC(N)=O)C(=O)N[C@@H]([C@@H](C)O)C(=O)N[C@@H](C)C(=O)N[C@@H]([C@@H](C)O)C(=O)N1)[C@@H](C)O)C(=O)N1CCC[C@H]1C(=O)N[C@@H](CO)C(=O)N[C@@H](CO)C(=O)N[C@H](C(=O)N[C@@H](CC(N)=O)C(=O)N[C@H](C(=O)NCC(=O)N1CCC[C@H]1C(=O)N[C@@H](CCC(=O)O)C(=O)N[C@H](C(=O)N[C@@H](Cc1ccc(O)cc1)C(N)=O)[C@@H](C)O)C(C)C)[C@@H](C)O, Synthetic acylated analogue of human amylin)
116	151	58.5	0.504	K([γGlu-C20 diacid])CNTATCATQRLADFLRHSSPNFGAIPSSTNVGPRTY-NH2 (disulfide 2-7; N-terminus assumed; SMILES CC[C@H](C)[C@H](NC(=O)[C@H](C)NC(=O)CNC(=O)[C@H](Cc1ccccc1)NC(=O)[C@H](CC(N)=O)NC(=O)[C@@H]1CCCN1C(=O)[C@H](CO)NC(=O)[C@H](CO)NC(=O)[C@H](Cc1c[nH]cn1)NC(=O)[C@H](CCCNC(=N)N)NC(=O)[C@H](CC(C)C)NC(=O)[C@H](Cc1ccccc1)NC(=O)[C@H](CC(=O)O)NC(=O)[C@H](C)NC(=O)[C@H](CC(C)C)NC(=O)[C@H](CCCNC(=N)N)NC(=O)[C@H](CCC(N)=O)NC(=O)[C@@H](NC(=O)[C@H](C)NC(=O)[C@@H]1CSSC[C@H](NC(=O)[C@@H](N)CCCCNC(=O)CC[C@H](NC(=O)CCCCCCCCCCCCCCCCCCC(=O)O)C(=O)O)C(=O)N[C@@H](CC(N)=O)C(=O)N[C@@H]([C@@H](C)O)C(=O)N[C@@H](C)C(=O)N[C@@H]([C@@H](C)O)C(=O)N1)[C@@H](C)O)C(=O)N1CCC[C@H]1C(=O)N[C@@H](CO)C(=O)N[C@@H](CO)C(=O)N[C@H](C(=O)N[C@@H](CC(N)=O)C(=O)N[C@H](C(=O)NCC(=O)N1CCC[C@H]1C(=O)N[C@@H](CCCNC(=N)N)C(=O)N[C@H](C(=O)N[C@@H](Cc1ccc(O)cc1)C(N)=O)[C@@H](C)O)C(C)C)[C@@H](C)O, Synthetic acylated analogue of human amylin)
